Assay results from patent US20210388087A1 (Chugai, published 2021).

B1: CE115HA000/GLS3000 F55P (antibody, IgG1, name in Kabat numbering, V domains shown)
VH: QVQLVESGGGVVQPGRSLRLSCAASGFTFSNAWMHWVRQAPGKGLEWVAQIKAKSNNYATYYAESVKGRFTISRDDSKNSLYLQMNSLKTEDTAVYYCRYVHYGAYYGVDAWGQGTTVTVSS
VL: DIVMTQSPLSLPVTPGEPASISCRSSQSLVHSNRNTYLHWYQQKPGQAPRLLIYKVSNRPSGVPDRFSGSGSGTDFTLKISRVEAEDVGVYYCGQGTQVPYTFGQGTKLEIK
notes: one-arm IgG1
B2: CE115HA000/GLS3000 F55T (antibody, IgG1, name in Kabat numbering, V domains shown)
VH: QVQLVESGGGVVQPGRSLRLSCAASGFTFSNAWMHWVRQAPGKGLEWVAQIKAKSNNYATYYAESVKGRFTISRDDSKNSLYLQMNSLKTEDTAVYYCRYVHYGAYYGVDAWGQGTTVTVSS
VL: DIVMTQSPLSLPVTPGEPASISCRSSQSLVHSNRNTYLHWYQQKPGQAPRLLIYKVSNRTSGVPDRFSGSGSGTDFTLKISRVEAEDVGVYYCGQGTQVPYTFGQGTKLEIK
notes: one-arm IgG1
B3: CE115HA000/GLS3000 F55S (antibody, IgG1, name in Kabat numbering, V domains shown)
VH: QVQLVESGGGVVQPGRSLRLSCAASGFTFSNAWMHWVRQAPGKGLEWVAQIKAKSNNYATYYAESVKGRFTISRDDSKNSLYLQMNSLKTEDTAVYYCRYVHYGAYYGVDAWGQGTTVTVSS
VL: DIVMTQSPLSLPVTPGEPASISCRSSQSLVHSNRNTYLHWYQQKPGQAPRLLIYKVSNRSSGVPDRFSGSGSGTDFTLKISRVEAEDVGVYYCGQGTQVPYTFGQGTKLEIK
notes: one-arm IgG1
B4: CE115HA000/GLS3000 F55Q (antibody, IgG1, name in Kabat numbering, V domains shown)
VH: QVQLVESGGGVVQPGRSLRLSCAASGFTFSNAWMHWVRQAPGKGLEWVAQIKAKSNNYATYYAESVKGRFTISRDDSKNSLYLQMNSLKTEDTAVYYCRYVHYGAYYGVDAWGQGTTVTVSS
VL: DIVMTQSPLSLPVTPGEPASISCRSSQSLVHSNRNTYLHWYQQKPGQAPRLLIYKVSNRQSGVPDRFSGSGSGTDFTLKISRVEAEDVGVYYCGQGTQVPYTFGQGTKLEIK
notes: one-arm IgG1
B5: CE115HA000/GLS3000 F55Y (antibody, IgG1, name in Kabat numbering, V domains shown)
VH: QVQLVESGGGVVQPGRSLRLSCAASGFTFSNAWMHWVRQAPGKGLEWVAQIKAKSNNYATYYAESVKGRFTISRDDSKNSLYLQMNSLKTEDTAVYYCRYVHYGAYYGVDAWGQGTTVTVSS
VL: DIVMTQSPLSLPVTPGEPASISCRSSQSLVHSNRNTYLHWYQQKPGQAPRLLIYKVSNRYSGVPDRFSGSGSGTDFTLKISRVEAEDVGVYYCGQGTQVPYTFGQGTKLEIK
notes: one-arm IgG1
B6: CE115HA000/GLS3000 F55V (antibody, IgG1, name in Kabat numbering, V domains shown)
VH: QVQLVESGGGVVQPGRSLRLSCAASGFTFSNAWMHWVRQAPGKGLEWVAQIKAKSNNYATYYAESVKGRFTISRDDSKNSLYLQMNSLKTEDTAVYYCRYVHYGAYYGVDAWGQGTTVTVSS
VL: DIVMTQSPLSLPVTPGEPASISCRSSQSLVHSNRNTYLHWYQQKPGQAPRLLIYKVSNRVSGVPDRFSGSGSGTDFTLKISRVEAEDVGVYYCGQGTQVPYTFGQGTKLEIK
notes: one-arm IgG1
B7: CE115HA000/GLS3000 F55W (antibody, IgG1, name in Kabat numbering, V domains shown)
VH: QVQLVESGGGVVQPGRSLRLSCAASGFTFSNAWMHWVRQAPGKGLEWVAQIKAKSNNYATYYAESVKGRFTISRDDSKNSLYLQMNSLKTEDTAVYYCRYVHYGAYYGVDAWGQGTTVTVSS
VL: DIVMTQSPLSLPVTPGEPASISCRSSQSLVHSNRNTYLHWYQQKPGQAPRLLIYKVSNRWSGVPDRFSGSGSGTDFTLKISRVEAEDVGVYYCGQGTQVPYTFGQGTKLEIK
notes: one-arm IgG1
B8: CE115HA000/GLS3000 F55R (antibody, IgG1, name in Kabat numbering, V domains shown)
VH: QVQLVESGGGVVQPGRSLRLSCAASGFTFSNAWMHWVRQAPGKGLEWVAQIKAKSNNYATYYAESVKGRFTISRDDSKNSLYLQMNSLKTEDTAVYYCRYVHYGAYYGVDAWGQGTTVTVSS
VL: DIVMTQSPLSLPVTPGEPASISCRSSQSLVHSNRNTYLHWYQQKPGQAPRLLIYKVSNRRSGVPDRFSGSGSGTDFTLKISRVEAEDVGVYYCGQGTQVPYTFGQGTKLEIK
notes: one-arm IgG1

target: T1, CD3 epsilon homodimer protein (UniProt P07766 23-126); test: SPR, antibody over immobilised CD3e homodimer;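 note: SPR at 25 °C with CD3 epsilon homodimer amine-coupled to a CM4 sensor chip and antibody flowed over as analyte in HBS-EP+ running buffer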
T1 construct: also called CD3 (CD3 epsilon)
T1 sequence (P07766 23-126): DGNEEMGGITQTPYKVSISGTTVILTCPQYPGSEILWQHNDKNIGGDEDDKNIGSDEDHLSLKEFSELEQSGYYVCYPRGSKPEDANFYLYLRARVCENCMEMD

| Binder | KD ratio to GLS3000 |
| --- | --- |
| B1 | 1.15 |
| B2 | 2.42 |
| B3 | 1.15 |
| B4 | 1.09 |
| B5 | 1.13 |
| B6 | 1.12 |
| B7 | 1.72 |
| B8 | 1.27 |
